One block for each substance: values may come before it.
Experiments:
[1] = target: tissue factor (TF) antigen (UniProt P13726); assay: SPR, same assay; reference wild-type D3H44 Fab
[2] = target: tissue factor (TF) antigen (UniProt P13726); assay: SPR (ProteOn XPR36), Fab captured on anti-penta His surface, TF injected as analyte, 1:1 model
[3] = target: tissue factor (TF) antigen (UniProt P13726); assay: SPR (ProteOn XPR36), Fab captured on anti-penta-His, TF injected, 1:1 fit; batch C (+)
[4] = target: tissue factor (TF) antigen (UniProt P13726); assay: SPR, against wild-type D3H44 Fab; batch C (+)
[5] = target: tissue factor (TF) antigen (UniProt P13726); assay: SPR (ProteOn XPR36), His-tagged Fab captured on anti-penta His, TF as analyte, 1:1 fit
[6] = target: tissue factor (TF) antigen (UniProt P13726); assay: SPR (ProteOn), Fab captured on anti-penta-His surface, TF injected, 1:1 fit
[7] = target: tissue factor (TF) antigen (UniProt P13726); assay: SPR (ProteOn), Fab captured on anti-penta-His surface, TF injected; reference wild-type D3H44 Fab
[8] = target: tissue factor (TF) antigen (UniProt P13726); assay: SPR, Fab captured on anti-penta-His surface, TF as analyte, 1:1 fit; Fab batch C; against wild-type D3H44 Fab
[9] = target: tissue factor (TF) antigen (UniProt P13726); assay: SPR, Fab captured on anti-penta-His surface, TF as analyte, 1:1 fit; Fab batch C
[10] = target: tissue factor (TF) antigen (UniProt P13726); assay: SPR, Fab captured on anti-penta His, TF injected, 1:1 fit
[11] = target: tissue factor (TF) antigen (UniProt P13726); assay: SPR; reference wild-type D3H44 Fab
[12] = target: tissue factor (TF) antigen (UniProt P13726); assay: SPR, Fab captured on anti-penta-His, TF as analyte, 1:1 fit

Chain of tissue factor (TF) antigen (P13726 33-251 limits assumed): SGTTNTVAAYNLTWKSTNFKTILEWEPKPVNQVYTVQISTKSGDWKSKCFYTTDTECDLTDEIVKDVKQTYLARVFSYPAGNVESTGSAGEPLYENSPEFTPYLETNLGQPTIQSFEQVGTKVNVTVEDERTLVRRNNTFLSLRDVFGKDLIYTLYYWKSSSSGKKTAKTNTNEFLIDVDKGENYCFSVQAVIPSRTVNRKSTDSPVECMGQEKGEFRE

change in median KD of H1L1 Fab heterodimer compared to wild type (-(log(KD design)-log(KD wt))) [1]: -0.08 | Kd [2]: 0.19 nM
Substance: H1L1 Fab heterodimer of LCCA set 9214 (D3H44 Fab, H1 L124E_L143D_K145T, L1 Q124K_V133G_S176R_T178K)

change in median KD of H1L1 Fab heterodimer compared to wild type (-(log(KD design)-log(KD wt))) [1]: -0.01 | Kd [2]: 0.16 nM
Substance: H1L1 Fab heterodimer of LCCA set 9359 (D3H44 Fab, H1 L124R_D146N_Q179K, L1 V133G_S176D_T178E_T180E)

Kd [3]: 0.13 nM | Change in median values of KD of h1l1 Fab heterodimer compared to wild type (-(log(KD design)-log(KD wt))) [4]: 0.09
Substance: H1L1 Fab heterodimer of LCCA Set # 9845 and 9846 (D3H44 Fab; H1 S186K, L1 Q124E_S131T_T178Y_T180E)

Kd [3]: 0.17 nM | Change in median values of KD of h1l1 Fab heterodimer compared to wild type (-(log(KD design)-log(KD wt))) [4]: -0.03
Substance: H1L1 Fab heterodimer of LCCA Set # 9843 and 9844 (D3H44 Fab; H1 S186K, L1 Q124E_S131T_T178F_T180E)

Kd [3]: 0.08 nM | Change in median values of KD of h1l1 Fab heterodimer compared to wild type (-(log(KD design)-log(KD wt))) [4]: 0.28
Substance: H1L1 Fab heterodimer of LCCA Set # 9781 and 9782 (D3H44 Fab; H1 Q179K, L1 Q124E_S176L_T180E)

Kd [5]: 0.14 nM
Substance: D3H44 Fab heterodimer, H1 A139C_C233S / L1 F116C_C214S (H1L1 Fab of LCCA Set # 9041)

Kd [6]: 0.16 nM | Change in median values of KD of h1l1 Fab heterodimer compared to wild type (-(log(KD design)-log(KD wt))) [7]: -0.01
Substance: D3H44 H1L1 Fab heterodimer of LCCA Set # 9362 (H1 L124R_D146N_Q179K; L1 V133G_S176D_T178E_T180E)

change in median KD compared to wild type, -(log(KD design)-log(KD wt)) [8]: 0.04 | Kd [9]: 0.14 nM
Substance: D3H44 H1L1 Fab heterodimer of LCCA Set # 9809 (H1 Q179R; L1 Q124E_T178E)

Kd [6]: 0.17 nM | Change in median values of KD of h1l1 Fab heterodimer compared to wild type (-(log(KD design)-log(KD wt))) [7]: -0.04
Substance: D3H44 H1L1 Fab heterodimer of LCCA Set # 9538 (H1 L124R_S186R; L1 V133G_S176D_T178D_T180E)

Kd [3]: 0.11 nM | Change in median values of KD of h1l1 Fab heterodimer compared to wild type (-(log(KD design)-log(KD wt))) [4]: 0.14
Substance: H1L1 Fab heterodimer of LCCA Set # 9803 and 9804 (D3H44 Fab; H1 Q179R, L1 Q124E_S131T_T178F_T180E)

Kd [10]: 0.26 nM | Change in KD with respect to wild type (-(log(KD design) - log(KD wt))) [11]: -0.21 | Change in KD with respect to wild type (-(log(KD design) - log(KD wt))) [12]: -0.21 | Kd [12]: 0.26 nM
Substance: D3H44 Fab heterodimer, H L124R_S186R / L Q124E_V133G_S176D_T178D_T180E

change in median KD of H1L1 Fab heterodimer compared to wild type (-(log(KD design)-log(KD wt))) [1]: -0.07 | Kd [2]: 0.18 nM
Substance: H1L1 Fab heterodimer of LCCA set 9358 (D3H44 Fab, H1 L124R_D146N_Q179K, L1 V133G_S176D_T178E)

Kd [10]: 0.23 nM | Change in KD with respect to wild type (-(log(KD design) - log(KD wt))) [11]: -0.17 | Change in KD with respect to wild type (-(log(KD design) - log(KD wt))) [12]: -0.17 | Kd [12]: 0.23 nM
Substance: D3H44 Fab heterodimer, H L124R_S186K / L V133G_S176D_T178E_T180E

change in median KD compared to wild type, -(log(KD design)-log(KD wt)) [8]: 0.09 | Kd [9]: 0.13 nM
Substance: D3H44 H1L1 Fab heterodimer of LCCA Set # 9644 (H1 L143E_K145T_Q179D_S188L; L1 Q124R_Q160K_T178R)

change in median KD of H1L1 Fab heterodimer compared to wild type (-(log(KD design)-log(KD wt))) [1]: -0.29 | Kd [2]: 0.31 nM
Substance: H1L1 Fab heterodimer of LCCA set 9269 (D3H44 Fab, H1 L124E_L143E_K145M, L1 Q124K_V133G_S176R_T178R)

Kd [3]: 0.15 nM | Change in median values of KD of h1l1 Fab heterodimer compared to wild type (-(log(KD design)-log(KD wt))) [4]: 0.01
Substance: H1L1 Fab heterodimer of LCCA Set # 9914 (D3H44 Fab; H1 S188L_V190F, L1 WT)

Kd [5]: 0.16 nM
Substance: D3H44 Fab heterodimer, H1 F122C_C233S / L1 S121C_C214S (H1L1 Fab of LCCA Set # 9043)

Kd [10]: 0.22 nM | Change in KD with respect to wild type (-(log(KD design) - log(KD wt))) [11]: -0.15 | Change in KD with respect to wild type (-(log(KD design) - log(KD wt))) [12]: -0.15 | Kd [12]: 0.22 nM
Substance: D3H44 Fab heterodimer, H L124R_Q179K / L Q124E_V133G_S176D_T178E_T180E

Kd [3]: 0.11 nM | Change in median values of KD of h1l1 Fab heterodimer compared to wild type (-(log(KD design)-log(KD wt))) [4]: 0.14
Substance: H1L1 Fab heterodimer of LCCA Set # 9906 (D3H44 Fab; H1 S188G, L1 S176L)

Kd [6]: 0.26 nM | Change in median values of KD of h1l1 Fab heterodimer compared to wild type (-(log(KD design)-log(KD wt))) [7]: -0.21
Substance: D3H44 H1L1 Fab heterodimer of LCCA Sets # 9505 and 9503 (H1 L124R_S186R; L1 Q124E_V133G_S176D_T178D_T180E)

Source: US11306156
